Results on 14 molecules are retold here after patent US20250011456A1, “ANTIBODIES AGAINST CD14 AND USES THEREOF” (Villanelle Life Science Inc, priority 2023, published 2025).

For the assay, the target named is T1, recombinant human CD14 (B294801, histidine tagged) (Homo sapiens, UniProt P08571).
T1 construct: His; purchased Shanghai BaiYing Biotechnology Co., Ltd B294801 (Batch number 20200518A22)
T1 sequence (P08571 20-345): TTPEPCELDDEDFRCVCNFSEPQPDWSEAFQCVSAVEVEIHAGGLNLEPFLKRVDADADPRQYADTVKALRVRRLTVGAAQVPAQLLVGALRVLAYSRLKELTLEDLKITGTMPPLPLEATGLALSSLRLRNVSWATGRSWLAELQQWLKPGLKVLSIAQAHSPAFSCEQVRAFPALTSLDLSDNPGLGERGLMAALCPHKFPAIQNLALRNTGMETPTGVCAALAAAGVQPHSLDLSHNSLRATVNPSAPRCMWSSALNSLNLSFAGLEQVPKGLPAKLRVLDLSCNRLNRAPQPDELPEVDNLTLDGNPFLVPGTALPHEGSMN
Description: Biacore 8K kinetic and affinity test of humanized antibodies (Example 8). It counts as binding. To be noted: for Kd / koff (1:1 binding) / kon (1:1 binding): Biacore 8K, analyte B294801 0.78125-25 nM, capture 1 μg/mL; for Kd: KD=koff/kon; for affinity compared with the mouse antibody D6DD3D001: Biacore, B294801 antigen; for Change Factor (ratio of KD of the humanized to mouse antibody): relative to mouse antibody D6DD3D001. The protocol: Experimental reagents and consumables included Protein A chip (Cytiva, 29127556). Main instruments and equipment included Biacore 8K (Cytiva), shaker (Taicang Huamei), ELISA system (Molecular Devices), centrifuge (Baiyang), ultrapure water system (Millipore), and thermostatic incubator (BLUE PARD).
The antigen used for the binding affinity measurements is B294801. This antigen is a recombinant human CD14 antigen that is histidine tagged and has a molecular weight of 36 kDa. B294801 was purchased from Shanghai BaiYing Biotechnology Co., Ltd (name: Recombinant Human CD14/His Protein; Batch number 20200518A22). D6DD3D001 is a mouse antibody, and D6DD3D002-D6DD3D0016 are humanized antibodies. The antibodies are recombinant, human (hFc Tag). Selected parameters of the experimental samples are shown in Table 8-1, with MW referring to molecular weight in kiloDaltons (kDa).
The Biacore 8K platform was used to test the kinetic and affinity properties of the antibody. The operation was carried out according to the system instructions and indications.
The equilibrium dissociation constant (KD) reflects the affinity of the antibody to the target, with a smaller value indicating a stronger affinity. KD (in units of molarity) is determined by the ratio of the dissociation rate constant (koff) and the association rate constant (kon), that is, KD=Koff/kon.
15 humanized antibodies (numbered D6DD3D002-D6DD3D0016) and 1 mouse antibody (number D6DD3D001) were tested. For the experiments, the analyte solution comprises the B294801 antigen with an analyte concentration of 0.78125 nM, 1.5625 nM, 3.125 nM, 6.25 nM, 12.5 nM, and 25 nM. The capture concentration was 1 μg/mL. In Table 8-3, the change factor is the ratio of the equilibrium dissociation constant KD of the humanized to mouse antibody, and reflects the change in affinity after humanization.
Background: SPR reads the build-up and loss of mass on a sensor chip optically.

Substitutions are numbered along the chain they refer to.

A word on the Kd: it is the free concentration of one partner at which half of the binding sites on the other are occupied at equilibrium, for simple one-to-one binding.

B1: D6DD3D005: humanized anti-CD14 antibody; VH SEQ ID NO: 17, VL SEQ ID NO: 19 (antibody, V domains shown)
VH: QVQLQESGPGLVKPSETLSLTCTVSGYSITSDSAWNWIRQPPGKGLEWIGYISYSGSTSYNPSLKSRVTISRDTSKNQFSLKLSSVTAADTAVYYCVRGLRFAYWGQGTLVTVSS
VL: EIVLTQSPATLSLSPGERATLSCRASESVDSYVNSFLHWYQQKPGQAPRLLIYRASNLQSGIPARFSGSGSRTDFTLTISSLEPEDVAVYYCQQSNEDPYTFGQGTKLEIK
As to B1, the Kd came to 529 pM, the “koff (1:1 binding)” value is 0.000798 s⁻¹, the “kon (1:1 binding)” value stood at 1.51e+06 M⁻¹ s⁻¹ and the “affinity compared with the mouse antibody D6DD3D001” value is listed as “approximately equivalent to the affinity of the antibody D6DD3D001 before humanization”. The “Change Factor (ratio of KD of the humanized to mouse antibody)” value is 1.09.

B2: D6DD3D010: humanized anti-CD14 antibody; VH SEQ ID NO: 37, VL SEQ ID NO: 39 (antibody, V domains shown)
VH: B1 VH
VL: DIVLTQSPDSLAVSLGERATINCRASESVDSYVNSFLHWYQQKPGQPPKLLIYRASNLQSGVPDRFSGSGSRTDFTLTISSLQAEDVAVYYCQQSNEDPYTFGQGTKLEIK
As for B2, the dissociation constant Kd stood at 555 pM, the “koff (1:1 binding)” value came out at 0.00105 s⁻¹, the “kon (1:1 binding)” value turned out to be 1.9e+06 M⁻¹ s⁻¹ and the “affinity compared with the mouse antibody D6DD3D001” value is recorded as “approximately equivalent to the affinity of the antibody D6DD3D001 before humanization”. In addition, the “Change Factor (ratio of KD of the humanized to mouse antibody)” value came out at 1.14.

B3: D6DD3D015: humanized anti-CD14 antibody; VH SEQ ID NO: 57, VL SEQ ID NO: 59 (antibody, V domains shown)
VH: B1 VH
VL: DIQLTQSPSSLSASVGDRVTITCRASESVDSYVNSFLHWYQQKPGKAPKLLIYRASNLQSGVPSRFSGSGSRTDFTLTISSLQPEDVATYYCQQSNEDPYTFGQGTKLEIK
For the molecule B3, the dissociation constant (Kd) turned out to be 532 pM, the “koff (1:1 binding)” value stood at 0.000843 s⁻¹, the “kon (1:1 binding)” value was 1.59e+06 M⁻¹ s⁻¹ and the “affinity compared with the mouse antibody D6DD3D001” value is recorded as “approximately equivalent to the affinity of the antibody D6DD3D001 before humanization”. Moreover, the “Change Factor (ratio of KD of the humanized to mouse antibody)” value came out at 1.10.

B4: D6DD3D006: humanized anti-CD14 antibody; VH SEQ ID NO: 21, VL SEQ ID NO: 23 (antibody, V domains shown)
VH: B1 VH with E16Q
VL: B1 VL
As for B4, the Kd stood at 602 pM, the “koff (1:1 binding)” value stood at 0.000862 s⁻¹, the “kon (1:1 binding)” value was found to be 1.43e+06 M⁻¹ s⁻¹ and the “Change Factor (ratio of KD of the humanized to mouse antibody)” value amounted to 1.24.

B5: D6DD3D002: humanized anti-CD14 antibody; VH SEQ ID NO: 5, VL SEQ ID NO: 7 (antibody, V domains shown)
VH: B1 VH with E16Q, Y27G, T30S, P41H
VL: B1 VL
In the case of B5, the “koff (1:1 binding)” value worked out at 0.00292 s⁻¹ and the “kon (1:1 binding)” value was found to be 1.69e+06 M⁻¹ s⁻¹.

B6: D6DD3D007: humanized anti-CD14 antibody; VH SEQ ID NO: 25, VL SEQ ID NO: 27 (antibody, V domains shown)
VH: B1 VH with E16Q, Y27G, T30S, P41H
VL: B2 VL
B6: the “koff (1:1 binding)” value worked out at 0.00342 s⁻¹ and the “kon (1:1 binding)” value was 2.11e+06 M⁻¹ s⁻¹.

B7: D6DD3D016: humanized anti-CD14 antibody; VH SEQ ID NO: 61, VL SEQ ID NO: 63 (antibody, V domains shown)
VH: B1 VH with E16Q
VL: B3 VL
Turning to B7, the Kd worked out at 672 pM, the “koff (1:1 binding)” value came to 0.000904 s⁻¹, the “kon (1:1 binding)” value was found to be 1.35e+06 M⁻¹ s⁻¹ and the “Change Factor (ratio of KD of the humanized to mouse antibody)” value turned out to be 1.39.

B8: D6DD3D003: humanized anti-CD14 antibody; VH SEQ ID NO: 9, VL SEQ ID NO: 11 (antibody, V domains shown)
VH: B1 VH with Y27G, T30S
VL: B1 VL
As to B8, the equilibrium dissociation constant (Kd) was found to be 1620 pM, the “koff (1:1 binding)” value amounted to 0.00295 s⁻¹, the “kon (1:1 binding)” value was found to be 1.82e+06 M⁻¹ s⁻¹ and the “Change Factor (ratio of KD of the humanized to mouse antibody)” value turned out to be 3.34.

B9: D6DD3D013: humanized anti-CD14 antibody; VH SEQ ID NO: 49, VL SEQ ID NO: 51 (antibody, V domains shown)
VH: B1 VH with Y27G, T30S
VL: B3 VL
B9: the dissociation constant Kd turned out to be 1610 pM, the “koff (1:1 binding)” value came to 0.00282 s⁻¹, the “kon (1:1 binding)” value stood at 1.76e+06 M⁻¹ s⁻¹ and the “Change Factor (ratio of KD of the humanized to mouse antibody)” value was 3.32.

B10: D6DD3D014: humanized anti-CD14 antibody; VH SEQ ID NO: 53, VL SEQ ID NO: 55 (antibody, V domains shown)
VH: B1 VH with V2L, Y27G, T30S
VL: B3 VL
Take B10: the equilibrium dissociation constant (Kd) was 1800 pM, the “koff (1:1 binding)” value worked out at 0.00318 s⁻¹, the “kon (1:1 binding)” value was found to be 1.77e+06 M⁻¹ s⁻¹ and the “Change Factor (ratio of KD of the humanized to mouse antibody)” value was determined as 3.71.

B11: D6DD3D008: humanized anti-CD14 antibody; VH SEQ ID NO: 29, VL SEQ ID NO: 31 (antibody, V domains shown)
VH: B1 VH with Y27G, T30S
VL: B2 VL
As for B11, the Kd came to 1570 pM, the “koff (1:1 binding)” value stood at 0.00329 s⁻¹, the “kon (1:1 binding)” value stood at 2.09e+06 M⁻¹ s⁻¹ and the “Change Factor (ratio of KD of the humanized to mouse antibody)” value amounted to 3.24.

B12: D6DD3D011: humanized anti-CD14 antibody; VH SEQ ID NO: 41, VL SEQ ID NO: 43 (antibody, V domains shown)
VH: B1 VH with E16Q
VL: B2 VL
Consider B12, for which the Kd was determined as 639 pM, the “koff (1:1 binding)” value is 0.00109 s⁻¹, the “kon (1:1 binding)” value is 1.71e+06 M⁻¹ s⁻¹ and the “Change Factor (ratio of KD of the humanized to mouse antibody)” value amounted to 1.32.

B13: D6DD3D012: humanized anti-CD14 antibody; VH SEQ ID NO: 45, VL SEQ ID NO: 47 (antibody, V domains shown)
VH: B1 VH with E16Q, Y27G, T30S, P41H
VL: B3 VL
Turning to B13, the “koff (1:1 binding)” value amounted to 0.00293 s⁻¹ and the “kon (1:1 binding)” value was 1.64e+06 M⁻¹ s⁻¹.

B14: D6DD3D009: humanized anti-CD14 antibody; VH SEQ ID NO: 33, VL SEQ ID NO: 35 (antibody, V domains shown)
VH: B1 VH with V2L, Y27G, T30S
VL: B2 VL
Turning to B14, the dissociation constant (Kd) came out at 1890 pM, the “koff (1:1 binding)” value worked out at 0.00379 s⁻¹, the “kon (1:1 binding)” value was 2.01e+06 M⁻¹ s⁻¹ and the “Change Factor (ratio of KD of the humanized to mouse antibody)” value amounted to 3.90.
